The values below come from PMC8716947.

The data set deals with T1, KguR (MBP-KguR-His6) (Escherichia coli (uropathogenic, CFT073)), ORF:aaa0ecb8.
T1 sequence: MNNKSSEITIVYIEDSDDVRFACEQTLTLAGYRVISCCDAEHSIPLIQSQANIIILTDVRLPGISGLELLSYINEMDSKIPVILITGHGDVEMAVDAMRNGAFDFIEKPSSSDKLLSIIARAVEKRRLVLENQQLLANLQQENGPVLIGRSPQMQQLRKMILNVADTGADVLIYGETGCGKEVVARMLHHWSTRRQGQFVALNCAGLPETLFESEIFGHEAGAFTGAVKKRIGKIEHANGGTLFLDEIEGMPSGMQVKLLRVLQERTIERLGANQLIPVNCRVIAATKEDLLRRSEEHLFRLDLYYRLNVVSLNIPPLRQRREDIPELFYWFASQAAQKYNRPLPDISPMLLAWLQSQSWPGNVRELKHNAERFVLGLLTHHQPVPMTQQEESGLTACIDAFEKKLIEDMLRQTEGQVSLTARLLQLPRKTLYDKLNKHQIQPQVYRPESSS
In words: EMSA. A general note: In EMSA bound probe runs differently from free probe, usually more slowly.

With “CATTCATCATCCATTGAATGCATTTATATTTATCATCAGTATATTCCCTGAACAATGTTTGCGAGAACCAAAAGAGTGCCATTGTGTGAATGTGTAAGCAGAATAACCGTGGCAATGTGTGGTTTATCGCACAGGTATTCCAAATGTGATCATGCTCTTTTTATGTGACAAATCCGCAGATAATCCTTCCTTTCCCCCGCGGTTGGCGTTATGGTCAGATGGTT (double strand) [PkguS]”, the binding result is “binds”.
